Ends that are not written are not given here. bbDTPA = DTPA chelating ligand bonded through a carbon of its ethylene backbone
Key:
[1] = target: T1, streptavidin (on magnetic beads) (UniProt P22629 37-163, limits assumed); assay: capture on streptavidin magnetic beads, gadolinium ICP
T1 construct: also called streptavidin beads; streptavidin-coated beads
Protocol: The three EP1595/EP1272 formulations, one EP1596/EP1272 formulation, and an EP1272 formulation were assayed for affinity to streptavidin magnetic beads. Each sample was diluted so as to maintain a constant ratio of biotinylated peptide and streptavidin binding sites in the assay. Solutions without biotin were treated as though they contained 0.5% EP1595. After several rinses the magnetic beads were digested in acid. The extent of capture was quantified by gadolinium ICP.

[2] = target: the molecule itself; assay: self-association, observation of solutions
Excerpt: First, solutions of EP 1272L (FW=2,243 Da) were concentrated and purified by centrifugation in a filter device with a nominal molecular weight limit of 300,000 Da. The formation of high molecular weight aggregates allowed EP1272L to be retained by the filter device. […] Third, SEC-LS column retention and light scattering measurements of EP1272L were consistent with a large species having a mass distribution of 4×10⁶ to 13×10⁶ Da, and a hydrodynamic radius in the range of 155 nm to 210 nm.

T1 sequence (P22629 37-163 limits assumed): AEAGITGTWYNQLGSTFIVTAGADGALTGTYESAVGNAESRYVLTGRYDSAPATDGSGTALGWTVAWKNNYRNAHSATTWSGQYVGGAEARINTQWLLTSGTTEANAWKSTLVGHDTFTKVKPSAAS

B1: EP1272L (peptide)
peptide: bbDTPA-GAEAEAKAKAEAEAKAK
modifications: also: bbDTPA complexed to Gd(III)
notes: also called EP1272L aggregates alone; EP1272 formulation
- binding result [1]: binds
- binding result [2]: binds
